# Patent US20160310583A1 (SUMITOMO DAINIPPON PHARMA, published 2016)
# B1: FAM83B-derived peptide F305_12 (peptide)
# peptide: TYQHSVSSLASV
# B2: FAM83B-derived peptide F62_10 (peptide)
# peptide: NYILKNVQKV
# B3: FAM83B-derived peptide F86_10 (peptide)
# peptide: TLSSGTYWPV
# B4: FAM83B-derived peptide F799_10 (peptide)
# peptide: RLCSSSDTLV
# B5: FAM83B-derived peptide F476_9 (peptide)
# peptide: FLQQRMPTL
# B6: FAM83B-derived peptide F179_11 (peptide)
# peptide: LLDESNFNHFL
# B7: FAM83B-derived peptide F55_10 (peptide)
# peptide: FLAEEEINYI
# B8: FAM83B-derived peptide F63_9 (peptide)
# peptide: YILKNVQKV
# B9: FAM83B-derived peptide F245_11 (peptide)
# peptide: SYMWSFEKAHL
# B10: FAM83B-derived peptide F23_10 (peptide)
# peptide: HYKEWYRVAI
# B11: FAM83B-derived peptide F151_10 (peptide)
# peptide: ALVMDIFTDV
# B12: FAM83B-derived peptide F38_11 (peptide)
# peptide: HGLEAYQEFLV
# B13: FAM83B-derived peptide F103_9 (peptide)
# peptide: NLDLGWPYV
# B14: FAM83B-derived peptide F114_11 (peptide)
# peptide: GLLGGTHIDLL
# B15: FAM83B-derived peptide F239_12 (peptide)
# peptide: VMYGSYSYMWSF
# B16: FAM83B-derived peptide F593_10 (peptide)
# peptide: KPLPESIPKL
# B17: FAM83B-derived peptide F475_10 (peptide)
# peptide: RFLQQRMPTL
# B18: FAM83B-derived peptide F131_9 (peptide)
# peptide: HLLTIKETI
# B19: FAM83B-derived peptide F256_11 (peptide)
# peptide: SMVQIITGQLV
# B20: FAM83B-derived peptide F148_9 (peptide)
# peptide: KVIALVMDI
# B21: FAM83B-derived peptide F257_10 (peptide)
# peptide: MVQIITGQLV
# Target: T1, HLA-A*02:01 (human)
# T1 construct: whole, on cells; MHC class I molecule, empty until peptide is added; detected with FITC anti-HLA-A02 antibody BB7.2
# Assay: MHC class I stabilization on T2-A24 cells, flow cytometry, 100 ug/mL peptide
row,Binder,MFI (solvent ratio)
1,B1,≥ 1.5 ratio to solvent
2,B2,≥ 1.5 ratio to solvent
3,B3,≥ 1.5 ratio to solvent
4,B4,≥ 1.5 ratio to solvent
5,B5,≥ 1.5 ratio to solvent
6,B6,≥ 1.5 ratio to solvent
7,B7,≥ 1.5 ratio to solvent
8,B8,≥ 1.5 ratio to solvent
9,B9,≥ 1.5 ratio to solvent
10,B10,≥ 1.5 ratio to solvent
11,B11,≥ 1.5 ratio to solvent
12,B12,≥ 1.5 ratio to solvent
13,B13,≥ 1.5 ratio to solvent
14,B14,≥ 1.5 ratio to solvent
15,B15,≥ 1.5 ratio to solvent
16,B16,≥ 1.5 ratio to solvent
17,B17,≥ 1.5 ratio to solvent
18,B18,≥ 1.5 ratio to solvent
19,B19,≥ 1.5 ratio to solvent
20,B20,≥ 1.5 ratio to solvent
21,B21,≥ 1.5 ratio to solvent

# Target: T2, HLA-A*24:02 (human)
# T2 construct: whole, on cells; MHC class I molecule, empty until peptide is added; detected with FITC anti-HLA-A24 antibody 17A10
# Assay: as above
row,Binder,MFI (solvent ratio)
1,B1,≥ 1.5 ratio to solvent
2,B2,≥ 1.5 ratio to solvent
3,B5,≥ 1.5 ratio to solvent
4,B9,≥ 1.5 ratio to solvent
5,B10,≥ 1.5 ratio to solvent
6,B12,≥ 1.5 ratio to solvent
7,B15,≥ 1.5 ratio to solvent
8,B16,≥ 1.5 ratio to solvent
9,B17,≥ 1.5 ratio to solvent
10,B18,≥ 1.5 ratio to solvent
11,B20,≥ 1.5 ratio to solvent

# Target: T1, HLA-A*02:01
# Assay: as above
# Remark: another data set of the same source
row,Binder,MFI (solvent ratio)
1,B1,2 ratio to solvent
2,B2,2.9 ratio to solvent
3,B3,3 ratio to solvent
4,B4,2.1 ratio to solvent
5,B5,2 ratio to solvent
6,B6,1.6 ratio to solvent
7,B7,3.5 ratio to solvent
8,B8,3.3 ratio to solvent
9,B9,1.5 ratio to solvent
10,B10,2 ratio to solvent
11,B11,3.4 ratio to solvent
12,B12,2.5 ratio to solvent
13,B13,2.6 ratio to solvent
14,B14,2.9 ratio to solvent
15,B15,1.6 ratio to solvent
16,B16,1.9 ratio to solvent
17,B17,1.9 ratio to solvent
18,B18,1.5 ratio to solvent
19,B19,3.2 ratio to solvent
20,B20,2.4 ratio to solvent
21,B21,1.9 ratio to solvent

# Target: T2, HLA-A*24:02
# Assay: as above
# Remark: another data set of the same source
row,Binder,MFI (solvent ratio)
1,B1,3.1 ratio to solvent
2,B2,1.6 ratio to solvent
3,B3,1 ratio to solvent
4,B4,1.2 ratio to solvent
5,B5,2.6 ratio to solvent
6,B6,1.1 ratio to solvent
7,B7,1.2 ratio to solvent
8,B8,1 ratio to solvent
9,B9,2.9 ratio to solvent
10,B10,3 ratio to solvent
11,B11,1 ratio to solvent
12,B12,3.1 ratio to solvent
13,B13,1.1 ratio to solvent
14,B14,1.1 ratio to solvent
15,B15,4 ratio to solvent
16,B16,3.5 ratio to solvent
17,B17,3 ratio to solvent
18,B18,2.4 ratio to solvent
19,B19,1.1 ratio to solvent
20,B20,1.6 ratio to solvent
21,B21,1.1 ratio to solvent
